Reference: publication doi:10.1101/2024.03.15.584944 (bioRxiv, 2024)

B1: rMASP-1 (enzyme, UniProt P48740 20-699, looked up)
chain: HTVELNNMFGQIQSPGYPDSYPSDSEVTWNITVPDGFRIKLYFMHFNLESSYLCEYDYVKVETEDQVLATFCGRETTDTEQTPGQEVVLSPGSFMSITFRSDFSNEERFTGFDAHYMAVDVDECKEREDEELSCDHYCHNYIGGYYCSCRFGYILHTDNRTCRVECSDNLFTQRTGVITSPDFPNPYPKSSECLYTIELEEGFMVNLQFEDIFDIEDHPEVPCPYDYIKIKVGPKVLGPFCGEKAPEPISTQSHSVLILFHSDNSGENRGWRLSYRAAGNECPELQPPVHGKIEPSQAKYFFKDQVLVSCDTGYKVLKDNVEMDTFQIECLKDGTWSNKIPTCKIVDCRAPGELEHGLITFSTRNNLTTYKSEIKYSCQEPYYKMLNNNTGIYTCSAQGVWMNKVLGRSLPTCLPVCGLPKFSRKLMARIFNGRPAQKGTTPWIAMLSHLNGQPFCGGSLLGSSWIVTAAHCLHQSLDPEDPTLRDSDLLSPSDFKIILGKHWRLRSDENEQHLGVKHTTLHPQYDPNTFENDVALVELLESPVLNAFVMPICLPEGPQQEGAMVIVSGWGKQFLQRFPETLMEIEIPIVDHSTCQKAYAPLKKKVTRDMICAGEKEGGKDACAGDSGGPMVTLNRERGQWYLVGTVSWGDDCGKKDRYGVYSYIHHNKDWIQRVTGVRN
B2: rMAP-1 (natural protein, UniProt P48740-3 20-380, looked up)
chain: HTVELNNMFGQIQSPGYPDSYPSDSEVTWNITVPDGFRIKLYFMHFNLESSYLCEYDYVKVETEDQVLATFCGRETTDTEQTPGQEVVLSPGSFMSITFRSDFSNEERFTGFDAHYMAVDVDECKEREDEELSCDHYCHNYIGGYYCSCRFGYILHTDNRTCRVECSDNLFTQRTGVITSPDFPNPYPKSSECLYTIELEEGFMVNLQFEDIFDIEDHPEVPCPYDYIKIKVGPKVLGPFCGEKAPEPISTQSHSVLILFHSDNSGENRGWRLSYRAAGNECPELQPPVHGKIEPSQAKYFFKDQVLVSCDTGYKVLKDNVEMDTFQIECLKDGTWSNKIPTCKKNEIDLESELKSEQVTE
B3: Zymogen rMASP-3 (enzyme, human, UniProt P48740-2 20-728, looked up)
chain: HTVELNNMFGQIQSPGYPDSYPSDSEVTWNITVPDGFRIKLYFMHFNLESSYLCEYDYVKVETEDQVLATFCGRETTDTEQTPGQEVVLSPGSFMSITFRSDFSNEERFTGFDAHYMAVDVDECKEREDEELSCDHYCHNYIGGYYCSCRFGYILHTDNRTCRVECSDNLFTQRTGVITSPDFPNPYPKSSECLYTIELEEGFMVNLQFEDIFDIEDHPEVPCPYDYIKIKVGPKVLGPFCGEKAPEPISTQSHSVLILFHSDNSGENRGWRLSYRAAGNECPELQPPVHGKIEPSQAKYFFKDQVLVSCDTGYKVLKDNVEMDTFQIECLKDGTWSNKIPTCKIVDCRAPGELEHGLITFSTRNNLTTYKSEIKYSCQEPYYKMLNNNTGIYTCSAQGVWMNKVLGRSLPTCLPECGQPSRSLPSLVKRIIGGRNAEPGLFPWQALIVVEDTSRVPNDKWFGSGALLSASWILTAAHVLRSQRRDTTVIPVSKEHVTVYLGLHDVRDKSGAVNSSAARVVLHPDFNIQNYNHDIALVQLQEPVPLGPHVMPVCLPRLEPEGPAPHMLGLVAGWGISNPNVTVDEIISSGTRTLSDVLQYVKLPVVPHAECKTSYESRSGNYSVTENMFCAGYYEGGKDTCLGDSGGAFVIFDDLSQRWVVQGLVSWGGPEECGSKQVYGVYTKVSNYVDWVWEQMGLPQSVVEPQVER
modifications: RED-tris-NTA dye on the His tag (in the MST only)

Legend:
C1q [1] = molecular target: T1, C1q (human (endogenous in normal human serum), UniProt P02745 23-245; P02746 28-253; P02747 29-245); test: ELISA
C1q [2] = molecular target: T1, C1q; test: MST

T1 sequence (P02745 23-245, chain 1 of 3): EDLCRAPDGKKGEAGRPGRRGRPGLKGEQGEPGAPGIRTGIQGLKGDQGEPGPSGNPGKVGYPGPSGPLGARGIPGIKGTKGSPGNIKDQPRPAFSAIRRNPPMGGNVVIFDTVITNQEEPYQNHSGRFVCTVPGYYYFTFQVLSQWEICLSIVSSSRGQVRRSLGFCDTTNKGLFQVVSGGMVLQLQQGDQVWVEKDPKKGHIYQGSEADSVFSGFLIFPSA
T1 sequence (P02746 28-253, chain 2 of 3): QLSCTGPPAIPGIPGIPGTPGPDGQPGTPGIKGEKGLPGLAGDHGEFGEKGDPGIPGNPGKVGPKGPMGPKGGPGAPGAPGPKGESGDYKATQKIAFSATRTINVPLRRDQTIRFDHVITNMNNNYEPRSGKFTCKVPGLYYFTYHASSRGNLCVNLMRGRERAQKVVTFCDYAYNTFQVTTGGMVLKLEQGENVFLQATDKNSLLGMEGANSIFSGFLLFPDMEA
T1 sequence (P02747 29-245, chain 3 of 3): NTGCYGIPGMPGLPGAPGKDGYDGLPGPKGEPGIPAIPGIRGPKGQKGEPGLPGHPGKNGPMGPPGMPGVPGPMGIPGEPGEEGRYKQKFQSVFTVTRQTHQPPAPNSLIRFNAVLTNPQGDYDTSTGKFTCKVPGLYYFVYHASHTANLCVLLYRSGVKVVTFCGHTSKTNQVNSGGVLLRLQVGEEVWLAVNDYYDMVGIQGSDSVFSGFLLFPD

Binder	binding result (C1q [1])	Kd (C1q [2])
B1	binds	–
B2	binds	–
B3	–	0.0696 µM
